Consider eight molecules from patent US20180273604A1 (ALBERT EINSTEIN COLLEGE OF MEDICINE, published 2018).

The labels stand for the following.
B1: ICOS-L, human, expressed on HEK 293 cells (ligand, UniProt O75144 19-302, looked up)
chain: DTQEKEVRAMVGSDVELSCACPEGSRFDLNDVYVYWQTSESKTVVTYHIPQNSSLENVDSRYRNRALMSPAGMLRGDFSLRLFNVTPQDEQKFHCLVLSQSLGFQEVLSVEVTLHVAANFSVPVVSAPHSPSQDELTFTCTSINGYPRPNVYWINKTDNSLLDQALQNDTVFLNMRGLYDVVSVLRIARTPSVNIGCCIENVLLQQNLTVGSQTGNDIGERDKITENPVSTGEKNAATWSILAVLCLLVVVAVAIGWVCRDRCLQHSYAGAWAVSPETELTGHV
notes: whole, on cells; Expressed as GFP or mCherry fusion; Library form: ectodomain on the mouse PD-L1 transmembrane segment with GFP; also called Human ICOS-L

In one assay the target is T1, TNFR-1B mutant D58A (human, UniProt P20333 23-461).
T1 construct: Point mutant expressed as mCherry fusion in HEK 293 cells; not shown: C-terminal mCherry fusion
T1 sequence: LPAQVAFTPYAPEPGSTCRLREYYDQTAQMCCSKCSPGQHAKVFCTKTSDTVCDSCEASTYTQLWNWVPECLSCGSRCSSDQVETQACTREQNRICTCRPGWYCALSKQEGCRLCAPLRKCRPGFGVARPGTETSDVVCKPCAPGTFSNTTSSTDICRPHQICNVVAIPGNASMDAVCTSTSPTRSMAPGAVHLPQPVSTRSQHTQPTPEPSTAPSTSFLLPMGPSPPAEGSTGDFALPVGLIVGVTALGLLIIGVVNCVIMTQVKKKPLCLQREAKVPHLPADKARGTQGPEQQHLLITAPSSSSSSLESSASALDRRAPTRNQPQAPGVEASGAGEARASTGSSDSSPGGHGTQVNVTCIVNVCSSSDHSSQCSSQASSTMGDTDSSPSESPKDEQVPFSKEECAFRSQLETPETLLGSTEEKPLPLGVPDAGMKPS
The experiment in a line: cell-cell FACS, mutant-mCherry cells vs ligand-GFP cells.

The target of assay [1] is T2, tumor necrosis factor receptor 1B (TNFR-1B), human, expressed on HEK 293 cells (human, UniProt P20333 23-461).
T2 construct: also called TNFR-1B-mCHERRY; Human TNFR-1B; not shown: C-terminal fluorescent protein (mCherry as query, GFP as library or panel member)
T2 sequence: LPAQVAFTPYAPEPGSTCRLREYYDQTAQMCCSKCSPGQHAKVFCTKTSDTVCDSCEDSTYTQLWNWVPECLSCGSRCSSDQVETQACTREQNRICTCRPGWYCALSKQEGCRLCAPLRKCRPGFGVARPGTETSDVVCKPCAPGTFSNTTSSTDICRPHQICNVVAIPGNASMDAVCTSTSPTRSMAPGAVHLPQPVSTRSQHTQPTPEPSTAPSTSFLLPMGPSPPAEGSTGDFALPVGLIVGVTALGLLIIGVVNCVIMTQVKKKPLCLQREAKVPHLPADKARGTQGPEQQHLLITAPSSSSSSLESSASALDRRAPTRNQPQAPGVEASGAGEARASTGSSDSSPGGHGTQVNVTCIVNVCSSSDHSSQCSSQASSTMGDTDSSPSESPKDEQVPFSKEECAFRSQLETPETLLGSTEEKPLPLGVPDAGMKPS
The experiment in a line: listed as newly discovered in this disclosure (cell-cell FACS screens).

The target of assay [2] is B1. Kind of assay: cell-cell FACS, mutant-mCherry cells vs ligand-GFP cells.
For assay [3], the target named is T3, TNFα, cell-surface displayed on HEK 293 cells (Homo sapiens (Human), UniProt P01375 1-233, Expressed as a GFP fusion on HEK 293 cells. GFP is left out of the chain. The native protein is a homotrimer.).
T3 construct: also called TNF-alpha; cell surface expressed TNFα
T3 sequence (P01375 whole entry, form in doubt, the tested form may be a part): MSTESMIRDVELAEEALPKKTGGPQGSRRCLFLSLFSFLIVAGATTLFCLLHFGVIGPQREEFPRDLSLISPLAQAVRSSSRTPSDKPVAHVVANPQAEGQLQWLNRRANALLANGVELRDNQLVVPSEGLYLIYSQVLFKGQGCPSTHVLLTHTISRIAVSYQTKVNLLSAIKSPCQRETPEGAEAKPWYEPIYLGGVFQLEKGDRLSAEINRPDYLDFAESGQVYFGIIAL
The description is as above.

Assay [4] deals with T2, tumor necrosis factor receptor 1B …. The experiment in a line: soluble ICOS-L Fc on transfected cells, flow cytometry. For orientation: A flow cytometer gives signals particle by particle.
For assay [5], the target named is T4, NGFR, human, expressed on cells (human, UniProt P08138 29-427).
T4 construct: whole, on cells
T4 sequence (looked up): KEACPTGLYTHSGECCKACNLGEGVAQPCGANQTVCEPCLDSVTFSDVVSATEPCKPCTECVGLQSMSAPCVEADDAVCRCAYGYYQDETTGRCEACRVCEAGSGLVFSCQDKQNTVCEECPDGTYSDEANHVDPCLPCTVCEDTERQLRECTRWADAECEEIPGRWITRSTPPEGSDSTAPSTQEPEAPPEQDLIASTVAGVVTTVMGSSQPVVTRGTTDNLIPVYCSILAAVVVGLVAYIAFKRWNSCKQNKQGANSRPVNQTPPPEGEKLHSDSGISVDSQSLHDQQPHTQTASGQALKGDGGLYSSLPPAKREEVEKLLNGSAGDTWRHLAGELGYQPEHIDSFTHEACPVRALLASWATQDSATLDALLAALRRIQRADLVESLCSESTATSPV
Kind of assay: cell-cell FACS screen, NGFR query cells vs GFP library cells.

The next assay addresses T5, mouse TNFR-1B (mouse, UniProt P25119 23-258).
T5 construct: also called mouse ortholog of TNFR-1B
T5 sequence (looked up): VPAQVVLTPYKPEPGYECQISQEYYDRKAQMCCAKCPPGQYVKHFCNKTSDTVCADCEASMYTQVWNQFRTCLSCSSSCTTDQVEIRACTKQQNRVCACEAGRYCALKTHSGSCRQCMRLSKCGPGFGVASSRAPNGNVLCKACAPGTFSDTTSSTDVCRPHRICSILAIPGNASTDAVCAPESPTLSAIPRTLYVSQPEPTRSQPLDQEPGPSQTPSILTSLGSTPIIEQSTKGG
The experiment in a line: mouse constructs tested; assay not described (data not shown).

Consider B1, for which the binding result (with TNFR-1B mutant D58A; in assay [1]) was “binds” throughout.

B2: TNFR-1B mutant N171D (receptor)
chain: LPAQVAFTPYAPEPGSTCRLREYYDQTAQMCCSKCSPGQHAKVFCTKTSDTVCDSCEDSTYTQLWNWVPECLSCGSRCSSDQVETQACTREQNRICTCRPGWYCALSKQEGCRLCAPLRKCRPGFGVARPGTETSDVVCKPCAPGTFSNTTSSTDICRPHQICNVVAIPGDASMDAVCTSTSPTRSMAPGAVHLPQPVSTRSQHTQPTPEPSTAPSTSFLLPMGPSPPAEGSTGDFALPVGLIVGVTALGLLIIGVVNCVIMTQVKKKPLCLQREAKVPHLPADKARGTQGPEQQHLLITAPSSSSSSLESSASALDRRAPTRNQPQAPGVEASGAGEARASTGSSDSSPGGHGTQVNVTCIVNVCSSSDHSSQCSSQASSTMGDTDSSPSESPKDEQVPFSKEECAFRSQLETPETLLGSTEEKPLPLGVPDAGMKPS
notes: Point mutant expressed as mCherry fusion in HEK 293 cells; not shown: C-terminal mCherry fusion
As for B2, the “binding as percent of wild-type” value in assay [2] and in assay [3] was ~50 % of wild-type in each case.

B3: TNFR-1B mutant T48A (receptor)
chain: LPAQVAFTPYAPEPGSTCRLREYYDQTAQMCCSKCSPGQHAKVFCTKASDTVCDSCEDSTYTQLWNWVPECLSCGSRCSSDQVETQACTREQNRICTCRPGWYCALSKQEGCRLCAPLRKCRPGFGVARPGTETSDVVCKPCAPGTFSNTTSSTDICRPHQICNVVAIPGNASMDAVCTSTSPTRSMAPGAVHLPQPVSTRSQHTQPTPEPSTAPSTSFLLPMGPSPPAEGSTGDFALPVGLIVGVTALGLLIIGVVNCVIMTQVKKKPLCLQREAKVPHLPADKARGTQGPEQQHLLITAPSSSSSSLESSASALDRRAPTRNQPQAPGVEASGAGEARASTGSSDSSPGGHGTQVNVTCIVNVCSSSDHSSQCSSQASSTMGDTDSSPSESPKDEQVPFSKEECAFRSQLETPETLLGSTEEKPLPLGVPDAGMKPS
notes: as for B2
With B3, the “binding as percent of wild-type” value in assay [2] and in assay [3] was ~50 % of wild-type in each case.

B4: MadCAM-1, human, expressed on HEK 293 cells (ligand, UniProt Q13477 19-382, looked up)
chain: QSLQVKPLQVEPPEPVVAVALGASRQLTCRLACADRGASVQWRGLDTSLGAVQSDTGRSVLTVRNASLSAAGTRVCVGSCGGRTFQHTVQLLVYAFPDQLTVSPAALVPGDPEVACTAHKVTPVDPNALSFSLLVGGQELEGAQALGPEVQEEEEEPQGDEDVLFRVTERWRLPPLGTPVPPALYCQATMRLPGLELSHRQAIPVLHSPTSPEPPDTTSPESPDTTSPESPDTTSQEPPDTTSPEPPDKTSPEPAPQQGSTHTPRSPGSTRTRRPEISQAGPTQGEVIPTGSSKPAGDQLPAALWTSSAVLGLLLLALPTYHLWKRCRHLAEDDTHPPASLRLLPQVSAWAGLRGTGQVGISPS
notes: whole, on cells; GFP or mCherry fusion; library form has the ectodomain on the mouse PD-L1 transmembrane segment
As for B4, the binding result (with TNFR-1B mutant D58A; in assay [1]) was “binds” in each case.

B5: ICOS-L Fc-fusion protein (soluble, purified) (Fc fusion, human, UniProt O75144 19-256, looked up, not shown: a dimerising Fc or GST)
chain: DTQEKEVRAMVGSDVELSCACPEGSRFDLNDVYVYWQTSESKTVVTYHIPQNSSLENVDSRYRNRALMSPAGMLRGDFSLRLFNVTPQDEQKFHCLVLSQSLGFQEVLSVEVTLHVAANFSVPVVSAPHSPSQDELTFTCTSINGYPRPNVYWINKTDNSLLDQALQNDTVFLNMRGLYDVVSVLRIARTPSVNIGCCIENVLLQQNLTVGSQTGNDIGERDKITENPVSTGEKNAAT
notes: Expressed in HEK 293 cells, purified by Ni2+-NTA and gel filtration; Used soluble or on protein A microbeads; also called ICOS-L Fc (IgG2a); ICOS-L mIgG2a
For the molecule B5, the binding result in assay [4] was “binds”.

B6: B7-1, human, expressed on cells (ligand, UniProt P33681 35-288, looked up)
chain: VIHVTKEVKEVATLSCGHNVSVEELAQTRIYWQKEKKMVLTMMSGDMNIWPEYKNRTIFDITNNLSIVILALRPSDEGTYECVVLKYEKDAFKREHLAEVTLSVKADFPTPSISDFEIPTSNIRRIICSTSGGFPEPHLSWLENGEELNAINTTVSQDPETELYAVSSKLDFNMTTNHSFMCLIKYGHLRVNQTFNWNTTKQEHFPDNLLPSWAITLISVNGIFVICCLTYCFAPRCRERRRNERLRRESVRPV
notes: whole, on cells
As to B6, in assay [5], the binding result was “binds”.

B7: mouse ICOS-L (ligand, UniProt Q9JHJ8 47-277, looked up)
chain: ETEVGAMVGSNVVLSCIDPHRRHFNLSGLYVYWQIENPEVSVTYYLPYKSPGINVDSSYKNRGHLSLDSMKQGNFSLYLKNVTPQDTQEFTCRVFMNTATELVKILEEVVRLRVAANFSTPVISTSDSSNPGQERTYTCMSKNGYPEPNLYWINTTDNSLIDTALQNNTVYLNKLGLYDVISTLRLPWTSRGDVLCCVENVALHQNITSISQAESFTGNNTKNPQETHNNE
notes: also called mouse ortholog of ICOS-L
For B7, in the assay with mouse TNFR-1B, the binding result is listed as “no binding”.

B8: TNFR-1B mutant K42D (receptor)
chain: LPAQVAFTPYAPEPGSTCRLREYYDQTAQMCCSKCSPGQHADVFCTKTSDTVCDSCEDSTYTQLWNWVPECLSCGSRCSSDQVETQACTREQNRICTCRPGWYCALSKQEGCRLCAPLRKCRPGFGVARPGTETSDVVCKPCAPGTFSNTTSSTDICRPHQICNVVAIPGNASMDAVCTSTSPTRSMAPGAVHLPQPVSTRSQHTQPTPEPSTAPSTSFLLPMGPSPPAEGSTGDFALPVGLIVGVTALGLLIIGVVNCVIMTQVKKKPLCLQREAKVPHLPADKARGTQGPEQQHLLITAPSSSSSSLESSASALDRRAPTRNQPQAPGVEASGAGEARASTGSSDSSPGGHGTQVNVTCIVNVCSSSDHSSQCSSQASSTMGDTDSSPSESPKDEQVPFSKEECAFRSQLETPETLLGSTEEKPLPLGVPDAGMKPS
notes: as for B2
As for B8, the “binding as percent of wild-type” value in assay [2] and in assay [3] was ~50 % of wild-type each time.
